Tests used:
[1] = molecular target: T1, FZD7 receptor expressed on cells (full-length) (UniProt O75084 33-574, limits assumed); test: flow cytometry, 200 nM Fab, FZD7 over-expression line (MDA MB 231) [cont'd]
T1 construct: whole, on cells; MDA MB 231 cells may carry other Frizzled receptors too; also called full-length FZD7 receptor; endogenous receptor on MDA MB 231 cells
Outline: (§1)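 EDTA-harvested MDA MB 231 cells, either FZD7-overexpressing or with endogenous receptor, were blocked in 2% FBS/PBS and stained with Fab for 30 min on ice. Detection used anti-F(ab′)₂-APC (1:1000, 15 min on ice), then 1% paraformaldehyde fixation and flow cytometry. Values are percent of cells in positive gates.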

[2] = molecular target: T2, Fc control protein; test: ELISA, 1ug/ml (20nM) Fab [cont'd]
T2 construct: also called Fc protein; control Fc protein
Outline: (§2)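 Plates coated with 2 ug/ml FZD7-Fc or Fc protein were probed with bacterially expressed purified Fabs for 1 h at room temperature in 0.5% BSA/0.05% Tween20/PBS. Bound Fab detected with anti-FLAG-HRP for 45 min, developed with TMB and acid stop, and read as absorbance at 450 nm; n.t. = not tested.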

[3] = molecular target: T3, recombinant Frizzled receptor 7 (FZD7) cysteine-rich domain (CRD) fused to the Fc region of human IgG (human, UniProt O75084 33-185); test: ELISA, 1ug/ml (20nM) Fab [cont'd]
Outline: as §2

[4] = molecular target: T2, Fc control protein; test: ELISA, 10ug/ml (200nM) Fab [cont'd]
Outline: as §2

[5] = molecular target: T3, recombinant Frizzled receptor 7 (FZD7) …; test: ELISA, 10ug/ml (200nM) Fab [cont'd]
Outline: as §2

[6] = molecular target: T1, FZD7 receptor expressed on cells …; test: flow cytometry, 200 nM Fab, MDA MB 231 [cont'd]
Outline: as §1

B1: B10 (Fab)
light: DIQMTQSPSSLSASVGDRVTITCRASQSVSSAVAWYQQKPGKAPKLLIYSASSLYSGVPSRFSGSRSGTDFTLTISSLQPEDFATYYCQQYWASLITFGQGTKVEIKRTVAAPSVFIFPPSDSQLKSGTASVVCLLNNFYPREAKVQWKVDNALQSGNSQESVTEQDSKDSTYSLSSTLTLSKADYEKHKVYACEVTHQGLSSPVTKSFNRGECGGS
heavy: EVQLVESGGGLVQPGGSLRLSCAASGFNISYYYIHWVRQAPGKGLEWVAYISPYYGSTYYADSVKGRFTISADTSKNTAYLQMNSLRAEDTAVYYCARSWSYSYYYSHPGWSPVWAMDYWGQGTLVTVSSASTKGPSVFPLAPSSKSTSGGTAALGCLVKDYFPEPVTVSWNSGALTSGVHTFPAVLQSSGLYSLSSVVTVPSSSLGTQTYICNVNHKPSNTKVDKKVEPKSC
notes: selection round 3; also called Fzd7-R3-B10
- % population within the positive gate [1]: 93.7%
- OD 450 [2]: 0.06
- OD 450 [3]: 3.22
- OD 450 [4]: 0.06
- OD 450 [5]: 3.24
- % population within the positive gate [6]: 98.2%

B2: D9 (Fab)
light: DIQMTQSPSSLSASVGDRVTITCRASQSVSSAVAWYQQKPGKAPKLLIYSASSLYSGVPSRFSGSRSGTDFTLTISSLQPEDFATYYCQQSSYSLITFGQGTKVEIKRTVAAPSVFIFPPSDSQLKSGTASVVCLLNNFYPREAKVQWKVDNALQSGNSQESVTEQDSKDSTYSLSSTLTLSKADYEKHKVYACEVTHQGLSSPVTKSFNRGECGGS
heavy: EVQLVESGGGLVQPGGSLRLSCAASGFNLSYSSMHWVRQAPGKGLEWVASIYSSYSSTSYADSVKGRFTISADTSKNTAYLQMNSLRAEDTAVYYCARGAGYYWWHYYYVHGAMDYWGQGTLVTVSSASTKGPSVFPLAPSSKSTSGGTAALGCLVKDYFPEPVTVSWNSGALTSGVHTFPAVLQSSGLYSLSSVVTVPSSSLGTQTYICNVNHKPSNTKVDKKVEPKSC
notes: selection round 3; also called Fzd7-R3-D9
- % population within the positive gate [1]: 80.9%
- OD 450 [2]: 0.06
- OD 450 [3]: 3.05
- OD 450 [4]: 0.09
- OD 450 [5]: 3.12
- % population within the positive gate [6]: 0.7%

B3: B2 (Fab)
light: DIQMTQSPSSLSASVGDRVTITCRASQSVSSAVAWYQQKPGKAPKLLIYSASSLYSGVPSRFSGSRSGTDFTLTISSLQPEDFATYYCQQSSYSLITFGQGTKVEIKRTVAAPSVFIFPPSDSQLKSGTASVVCLLNNFYPREAKVQWKVDNALQSGNSQESVTEQDSKDSTYSLSSTLTLSKADYEKHKVYACEVTHQGLSSPVTKSFNRGECGGS
heavy: EVQLVESGGGLVQPGGSLRLSCAASGFNLSYSYMHWVRQAPGKGLEWVASIYSSYGYTSYADSVKGRFTISADTSKNTAYLQMNSLRAEDTAVYYCARYYGWAYYYSYFPAWAGGGIDYWGQGTLVTVSSASTKGPSVFPLAPSSKSTSGGTAALGCLVKDYFPEPVTVSWNSGALTSGVHTFPAVLQSSGLYSLSSVVTVPSSSLGTQTYICNVNHKPSNTKVDKKVEPKSC
notes: selection round 3; also called Fzd7-R3-B2
- % population within the positive gate [1]: 86.2%
- OD 450 [2]: 0.06
- OD 450 [3]: 2.92
- OD 450 [4]: 0.1
- OD 450 [5]: 3.18
- % population within the positive gate [6]: 15.9%

B4: G7 (Fab)
light: DIQMTQSPSSLSASVGDRVTITCRASQSVSSAVAWYQQKPGKAPKLLIYSASSLYSGVPSRFSGSRSGTDFTLTISSLQPEDFATYYCQQYGYWWVSLFTFGQGTKVEIKRTVAAPSVFIFPPSDSQLKSGTASVVCLLNNFYPREAKVQWKVDNALQSGNSQESVTEQDSKDSTYSLSSTLTLSKADYEKHKVYACEVTHQGLSSPVTKSFNRGECGGS
heavy: EVQLVESGGGLVQPGGSLRLSCAASGFNLYYYSIHWVRQAPGKGLEWVASIYSYSSYTYYADSVKGRFTISADTSKNTAYLQMNSLRAEDTAVYYCARWWPGHYSGYGSGALDYWGQGTLVTVSSASTKGPSVFPLAPSSKSTSGGTAALGCLVKDYFPEPVTVSWNSGALTSGVHTFPAVLQSSGLYSLSSVVTVPSSSLGTQTYICNVNHKPSNTKVDKKVEPKSC
notes: selection round 3; also called Fzd7-R3-G7
- % population within the positive gate [1]: 84.2%
- OD 450 [2]: 0.06
- OD 450 [3]: 1.9
- OD 450 [4]: 0.13
- OD 450 [5]: 2.98
- % population within the positive gate [6]: 15.3%

B5: B9 (Fab)
light: DIQMTQSPSSLSASVGDRVTITCRASQSVSSAVAWYQQKPGKAPKLLIYSASSLYSGVPSRFSGSRSGTDFTLTISSLQPEDFATYYCQQWWASGVGPFTFGQGTKVEIKRTVAAPSVFIFPPSDSQLKSGTASVVCLLNNFYPREAKVQWKVDNALQSGNSQESVTEQDSKDSTYSLSSTLTLSKADYEKHKVYACEVTHQGLSSPVTKSFNRGECGGS
heavy: EVQLVESGGGLVQPGGSLRLSCAASGFNLYSSSIHWVRQAPGKGLEWVAYISSYYSSTYYADSVKGRFTISADTSKNTAYLQMNSLRAEDTAVYYCARPAMDYWGQGTLVTVSSASTKGPSVFPLAPSSKSTSGGTAALGCLVKDYFPEPVTVSWNSGALTSGVHTFPAVLQSSGLYSLSSVVTVPSSSLGTQTYICNVNHKPSNTKVDKKVEPKSC
notes: selection round 3; also called Fzd7-R3-B9
- % population within the positive gate [1]: 91.5%
- OD 450 [2]: 0.05
- OD 450 [3]: 3.22
- OD 450 [4]: 0.06
- OD 450 [5]: 3.26
- % population within the positive gate [6]: 46.7%

B6: F3 (Fab)
light: DIQMTQSPSSLSASVGDRVTITCRASQSVSSAVAWYQQKPGKAPKLLIYSASSLYSGVPSRFSGSRSGTDFTLTISSLQPEDFATYYCQQGGHYWLITFGQGTKVEIKRTVAAPSVFIFPPSDSQLKSGTASVVCLLNNFYPREAKVQWKVDNALQSGNSQESVTEQDSKDSTYSLSSTLTLSKADYEKHKVYACEVTHQGLSSPVTKSFNRGECGGS
heavy: EVQLVESGGGLVQPGGSLRLSCAASGFNISYSSMHWVRQAPGKGLEWVASISSSYGYTSYADSVKGRFTISADTSKNTAYLQMNSLRAEDTAVYYCARSYYGYYVGYGYSSWSGSGMDYWGQGTLVTVSSASTKGPSVFPLAPSSKSTSGGTAALGCLVKDYFPEPVTVSWNSGALTSGVHTFPAVLQSSGLYSLSSVVTVPSSSLGTQTYICNVNHKPSNTKVDKKVEPKSC
notes: selection round 3; also called Fzd7-R3-F3
- % population within the positive gate [1]: 82.5%
- OD 450 [2]: 0.06
- OD 450 [3]: 2.35
- OD 450 [4]: 0.07
- OD 450 [5]: 2.97
- % population within the positive gate [6]: 1%

B7: E9 (Fab)
light: DIQMTQSPSSLSASVGDRVTITCRASQSVSSAVAWYQQKPGKAPKLLIYSASSLYSGVPSRFSGSRSGTDFTLTISSLQPEDFATYYCQQAVYHALITFGQGTKVEIKRTVAAPSVFIFPPSDSQLKSGTASVVCLLNNFYPREAKVQWKVDNALQSGNSQESVTEQDSKDSTYSLSSTLTLSKADYEKHKVYACEVTHQGLSSPVTKSFNRGECGGS
heavy: EVQLVESGGGLVQPGGSLRLSCAASGFNIYYSSMHWVRQAPGKGLEWVASISSYSSSTYYADSVKGRFTISADTSKNTAYLQMNSLRAEDTAVYYCARSAVVHYPAGYWVYWGWYAFDYWGQGTLVTVSSASTKGPSVFPLAPSSKSTSGGTAALGCLVKDYFPEPVTVSWNSGALTSGVHTFPAVLQSSGLYSLSSVVTVPSSSLGTQTYICNVNHKPSNTKVDKKVEPKSC
notes: selection round 3; also called Fzd7-R3-E9
- % population within the positive gate [1]: 87.1%
- OD 450 [2]: 0.07
- OD 450 [3]: 3.09
- OD 450 [4]: 0.1
- OD 450 [5]: 3.2
- % population within the positive gate [6]: 96.6%

B8: G9 (Fab)
light: DIQMTQSPSSLSASVGDRVTITCRASQSVSSAVAWYQQKPGKAPKLLIYSASSLYSGVPSRFSGSRSGTDFTLTISSLQPEDFATYYCQQYYYSSPITFGQGTKVEIKRTVAAPSVFIFPPSDSQLKSGTASVVCLLNNFYPREAKVQWKVDNALQSGNSQESVTEQDSKDSTYSLSSTLTLSKADYEKHKVYACEVTHQGLSSPVTKSFNRGECGGS
heavy: EVQLVESGGGLVQPGGSLRLSCAASGFNISYYYIHWVRQAPGKGLEWVAYISPSSGYTSYADSVKGRFTISADTSKNTAYLQMNSLRAEDTAVYYCARGYPVYSWVWSFGAFDYWGQGTLVTVSSASTKGPSVFPLAPSSKSTSGGTAALGCLVKDYFPEPVTVSWNSGALTSGVHTFPAVLQSSGLYSLSSVVTVPSSSLGTQTYICNVNHKPSNTKVDKKVEPKSC
notes: selection round 3; also called Fzd7-R3-G9
- % population within the positive gate [1]: 84.7%
- OD 450 [2]: 0.06
- OD 450 [3]: 3.12
- OD 450 [4]: 0.16
- OD 450 [5]: 3.21
- % population within the positive gate [6]: 6.1%

— patent US20160194394A1 (GOVERNING COUNCIL OF THE UNIVERSITY OF TORONTO, published 2016)
